According to patent CN115710309A (INST PASTEUR SHANGHAI CAS, dated 2023):

B1: 单抗2G3 (antibody)
heavy: QVQLQQPGAELVKPGASVKMSCKASGYTFTTYTIHWLRQTPGQGLEWIGAIYPGIGDTSYNQSFKGKATLTADKSSSTAYMQLSSLTSEDSAVYYCARDGNYAPFTYWGQGTLVTVSAAKTTPPSVYPLAPGSAAQTNSMVTLGCLVKGYFPEPVTVTWNSGSLSSGVHTFPAVLQSDLYTLSSSVTVPSSTWPSETVTCNVAHPASSTKVDKKIVPRDCGCKPCICTVPEVSSVFIFPPKPKDVLTITLTPKVTCVVVDISKDDPEVQFSWFVDDVEVHTAQTQPREEQFNSTFRSVSELPIMHQDWLNGKEFKCRVNSAAFPAPIEKTISKTKGRPKAPQVYTIPPPKEQMAKDKVSLTCMITDFFPEDITVEWQWNGQPAENYKNTQPIMDTDGSYFVYSKLNVQKSNWEAGNTFTCSVLHEGLHNHHTEKSLSHSPGK
light: DIVMSQSPSSLAVSVGEKVTMSCKSSQSLLYSNNQKNYLAWYQQKPGQSPKLLIYWTSTRESGVPDRFTGSGSGTDFTLTINSVKAEDLAVYYCQQYYRYPLTVGAGTKLELKRADAAPTVSIFPPSSEQLTSGGASVVCFLNNFYPKDINVKWKIDGSERQNGVLNSWTDQDSKDSTYSMSSTLTLTKDEYERHNSYTCEATHKTSTSPIVKSFNRNEC
B2: 单抗3A2 (antibody, V domains shown)
VH: QVTLKESGPGILQPSQTLSLTCSFSGFSLSTSGMGVSWIRQPSGKGLEWLAHIYWDDDKRYNPSLKSRLTISKDTSSSQVFLKITSVDTVDTATYYCARRGPLITTDGTFDVWGAGTTVTVSS
VL: DIVMTQSRKFMSTSVGDRVSITCKASQDVGTSVAWYQQKPGQSPKLLIYWASTRHTGVPDRFTGSGSGTDFTLTINSVQSEDLADYFCQQYSSYPYTFGGGTKLEMK
B3: 单抗8D3 (antibody, V domains shown)
VH: EVQLQQSGPELVKPGASVKISCKTSGYTFTEYTMYWVKQSHGKSLEWIGGINPNIGDTSYNQNFKGKATLTVDRSSSTAYMELRSLTSEDSAVYYCARDGYPYYYALDHWGQGTSVTVSS
VL: DIVMTQSQKFMSTSVGDRVSVTCKASQNVGTNVAWYQQKPGQSPKALIYSTSYRYSGVPDRFTGSGSGTDFTLTISNVQSEDLAEYFCQQYNSYPYTFGGGTKLEIKR

Tests used:
Assay in all cases: cell-based or functional assay
[1] = biological target: SARS-CoV-2活病毒nCoV-SH01株的S蛋白 (SARS-CoV-2, UniProt P0DTC2 14-1273)
[2] = biological target: SARS-CoV-2 S蛋白 (野生型假病毒) (SARS-CoV-2, UniProt P0DTC2 14-1273)
[3] = biological target: SARS-CoV-2 S蛋白 (野生型假病毒) (SARS-CoV-2, UniProt P0DTC2 14-1273); remark: listed apart in the source

Binder | 活病毒中和 IC50 [1] [µg/mL] | 假病毒中和试验 半数抑制浓度(IC50) [2] [µg/mL] | 假病毒中和试验 半数抑制浓度(IC50) [3] [µg/mL]
B1 | 0.032 | 0.007 | 
B2 |  |  | 0.049
B3 | 0.071 | 0.007 | 
